Measured values taken from patent publication US20080267974A1 (SCHERING, published 2008).
Positions count from the first letter of the chain named. Names may count otherwise. “And” between values parts separate entries of the source, which are not always exact repeats. Identical values can stand only once.

B1: MAb 695 (antibody, V domains shown)
VH: EVQLLESGGGLIQPGGSLRLSCAASGFTVSSNYMSWVRQAPGKGLEWVSVIYSGGRTYYADSVKGRFTISRDSSKNTLYLQMNSLRAEDTAVYYCARNYYGSTYDYWGQGTLVTVSS
VL: EIVLTQSPVTLSVPPGERASLSCRASQNIYTAVAWYQQKPGQAPRLLIYGASTRATGIPARFSGGGSGTDYTLTISSLESEDFAVYHCQQYHSWPLTFGGGTKLEIK
notes: also called 121 D11; H1192/L250
B2: MAb 1989 (antibody, V domains shown)
VH: EVQLVESGGGLIQPGGSLRLSCAVSGLNVSRDYMSWVRQAPGKGLEWISVIYRVGATMYADSVKGRFTISRDTSKNTVFLQMSRLKVADTAVYYCARNYYGSTLDYWGQGTLVTVSS
VL: B1 VL with G50N, Y91W
notes: IgG1/kappa, CHO; also called H1814/L459
B3: MAb 805 (antibody, V domains shown)
VH: B2 VH with V54G, L104Y
VL: B1 VL
notes: also called 156 H7; H1329/L250
B4: MAb 1988 (antibody, V domains shown)
VH: B2 VH with V54I
VL: B1 VL with G50N, Y91W
notes: IgG1/kappa, CHO; also called H1813/L459
B5: MAb 716 (antibody, V domains shown)
VH: B1 VH with R56S, S73N
VL: B1 VL
notes: also called 142 F2; H1280/L250
B6: MAb 1007 (antibody, V domains shown)
VH: B2 VH with V54G, L104Y
VL: B1 VL with Y91W
B7: MAb 1999 (antibody, V domains shown)
VH: B2 VH with V54G, A56I
VL: B1 VL with G50N, Y91W
notes: IgG1/kappa, CHO; also called H1824/L459
B8: MAb 1775 (antibody, V domains shown)
VH: B2 VH with V54G, L104M
VL: B1 VL with Y91W
notes: IgG1/kappa, CHO; also called H1687/L332
B9: MAb 699 (antibody, V domains shown)
VH: B1 VH with R56S, S73N, S74A, L78V, A87S
VL: B1 VL
notes: also called 183 E9; H1273/L250
B10: MAb 714 (antibody, V domains shown)
VH: B1 VH with L5V, I12V, R19K, S53R, R56S, S73I, K75R, T77M, L78V
VL: B1 VL
notes: also called 141 A10; H1277/L250
B11: MAb 1714 (antibody, V domains shown)
VH: B2 VH with V54G, L104F
VL: B1 VL with Y91W
notes: IgG1/kappa, CHO; also called H1678/L332
B12: MAb 2006 (antibody, V domains shown)
VH: B2 VH with V54G, M58H
VL: B1 VL with G50N, Y91W
notes: IgG1/kappa, CHO; also called H1831/L459
B13: MAb 698 (antibody, V domains shown)
VH: B1 VH with S30G, S31N, G54A, R56S, T68I, S73N, N76D, L78V, A87V, E88D
VL: B1 VL
notes: also called 131 E11; H1272/L250
B14: MAb 715 (antibody, V domains shown)
VH: B1 VH with S31N, E46Q, S49A, R56S, A60P, V63M, S73N
VL: B1 VL
notes: also called 141 F2; H1278/L250
B15: MAb 2019 (antibody, V domains shown)
VH: B2 VH with V54G, A56V
VL: B1 VL with G50N, Y91W
notes: IgG1/kappa, CHO; also called H1844/L459
B16: MAb 1777 (antibody, V domains shown)
VH: B2 VH with V54G, L104I
VL: B1 VL with Y91W
notes: IgG1/kappa, CHO; also called H1684/L332
B17: MAb 696 (antibody, V domains shown)
VH: B1 VH with L5V
VL: B1 VL
notes: also called 121 E1B; H1193/L250
B18: MAb 1066 (antibody, V domains shown)
VH: B1 VH with Y104L
VL: B1 VL
notes: IgG1/kappa, CHO; also called H1487/L250
B19: MAb 1028 (antibody, V domains shown)
VH: B1 VH with N98T
VL: B1 VL
notes: IgG1/kappa, CHO; also called H1478/L250
B20: MAb 1029 (antibody, V domains shown)
VH: B1 VH with N98L
VL: B1 VL
notes: IgG1/kappa, CHO; also called H1479/L250
B21: MAb 1037 (antibody, V domains shown)
VH: B1 VH with Y104F
VL: B1 VL
notes: IgG1/kappa, CHO; also called H1482/L250
B22: MAb 874 (antibody, V domains shown)
VH: B1 VH with Y100A
VL: B1 VL
notes: IgG1/kappa, CHO; also called H1373/L250
B23: MAb 812 (antibody, V domains shown)
VH: B1 VH
VL: B1 VL with H92F
notes: IgG1/kappa, CHO; also called H1192/L308
B24: MAb 1132 (antibody, V domains shown)
VH: B1 VH with Y104H
VL: B1 VL
notes: IgG1/kappa, CHO; also called H1518/L250
B25: MAb 1036 (antibody, V domains shown)
VH: B1 VH with N98T
VL: B1 VL with Y91W
notes: IgG1/kappa, CHO; also called H1478/L332
B26: MAb 892 (antibody, V domains shown)
VH: B1 VH with T103L
VL: B1 VL
notes: IgG1/kappa, CHO; also called H1388/L250
B27: MAb 1131 (antibody, V domains shown)
VH: B1 VH with Y104H
VL: B1 VL with Y91W
notes: IgG1/kappa, CHO; also called H1518/L332
B28: MAb 1042 (antibody, V domains shown)
VH: B1 VH with Y104F
VL: B1 VL with Y91W
notes: IgG1/kappa, CHO; also called H1482/L332
B29: MAb 1043 (antibody, V domains shown)
VH: B1 VH with Y104M
VL: B1 VL with Y91W
notes: IgG1/kappa, CHO; also called H1483/L332
B30: MAb 1038 (antibody, V domains shown)
VH: B1 VH with Y104M
VL: B1 VL
notes: IgG1/kappa, CHO; also called H1483/L250
B31: MAb 1210 (antibody, V domains shown)
VH: B1 VH with Y104V
VL: B1 VL with Y91W
notes: IgG1/kappa, CHO; also called H1557/L332
B32: MAb 1067 (antibody, V domains shown)
VH: B1 VH with Y104L
VL: B1 VL with Y91W
notes: IgG1/kappa, CHO; also called H1487/L332

These binders were tested against T1, tumor necrosis factor alpha (TNFα) (human, UniProt P01375 77-233) (assay: cell-based or functional assay).
T1 sequence (P01375 77-233 limits assumed): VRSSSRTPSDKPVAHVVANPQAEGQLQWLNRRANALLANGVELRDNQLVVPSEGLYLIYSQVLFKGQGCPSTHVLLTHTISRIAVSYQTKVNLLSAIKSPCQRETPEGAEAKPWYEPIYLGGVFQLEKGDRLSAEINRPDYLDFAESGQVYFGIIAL
For B1, the “IC50, TNFα cytotoxicity assay (WEHI-13VAR cells)” value (from here on “IC50, TNFα cytotoxicity assay”) was 22.9 nM. In the case of B2, the “IC50, TNFα cytotoxicity assay” value is reported as 0.2 nM. With B3 the “IC50, TNFα cytotoxicity assay” value was 4.8 nM and 10.3 nM. In the case of B4, the “IC50, TNFα cytotoxicity assay” value is reported as 0.2 nM. With B5 the “IC50, TNFα cytotoxicity assay” value was 31.4 nM. With B6 the “IC50, TNFα cytotoxicity assay” value was 12.2 nM. B7 was tested, and the “IC50, TNFα cytotoxicity assay” value was 0.3 nM. With B8 the “IC50, TNFα cytotoxicity assay” value was 6.5 nM. In the case of B9, the “IC50, TNFα cytotoxicity assay” value is reported as 350 nM. In the case of B10, the “IC50, TNFα cytotoxicity assay” value is reported as 7.75 nM. B11 was tested, and the “IC50, TNFα cytotoxicity assay” value was 1.3 nM. For B12, the “IC50, TNFα cytotoxicity assay” value was 0.3 nM. For B13, the “IC50, TNFα cytotoxicity assay” value was 152 nM. With B14 the “IC50, TNFα cytotoxicity assay” value was 21.4 nM. B15 was tested, and the “IC50, TNFα cytotoxicity assay” value was 0.3 nM. With B16 the “IC50, TNFα cytotoxicity assay” value was 7 nM.

The binders below were run against T1, tumor necrosis factor alpha (TNFα) (assay: affinity by IC50 ELISA (so named in paragraph 380)).
Work on B1 yielded an Affinity of 0.6 nM. B3 showed an Affinity of 0.6 nM. With B5 the Affinity was greater than 10 nM. Work on B9 yielded an Affinity of 7.3 nM. B10 showed an Affinity of 0.4 nM. In the case of B17, the Affinity is reported as 0.6 nM. B13 gave an Affinity of 2.3 nM. B14 showed an Affinity of 0.6 nM.

Target: T1, tumor necrosis factor alpha (TNFα)
Test: affinity by IC50 ELISA (so named in paragraph 380)
Remark: another data set of the same source
B2 showed an Affinity of 0.05 nM. B18 showed an Affinity of 0.13 nM. Binder B19 has an Affinity of 0.32 nM. In the case of B20, the Affinity is reported as 0.36 nM. Work on B4 yielded an Affinity of 0.04 nM. For B21, the Affinity was 0.12 nM. For B22, the Affinity was 0.56 nM. With B7 the Affinity was 0.04 nM. Binder B23 has an Affinity of 0.32 nM. Work on B24 yielded an Affinity of 0.1 nM. Binder B8 has an Affinity of 0.22 nM. Work on B25 yielded an Affinity of 0.18 nM. B26 was tested, and the Affinity was 0.43 nM. B27 was tested, and the Affinity was 0.13 nM. In the case of B28, the Affinity is reported as 0.07 nM. Binder B11 has an Affinity of 0.16 nM. B29 showed an Affinity of 0.31 nM. Binder B12 has an Affinity of 0.04 nM. B30 gave an Affinity of 0.25 nM. Work on B31 yielded an Affinity of 0.14 nM. Binder B15 has an Affinity of 0.04 nM. B32 was tested, and the Affinity was 0.12 nM. Binder B16 has an Affinity of 0.18 nM.

Target: T1, tumor necrosis factor alpha (TNFα)
Test: affinity by IC50 ELISA (so named in paragraph 380)
Remark: another data set of the same source
For B1, the Affinity was 0.6 nM. B3 was tested, and the Affinity was 0.6 nM. Binder B5 has an Affinity greater than 10 nM. In the case of B9, the Affinity is reported as 7.3 nM. B10 gave an Affinity of 0.4 nM. B17 gave an Affinity of 0.6 nM. With B13 the Affinity was 2.3 nM. B14 showed an Affinity of 0.6 nM.

Target: T1, tumor necrosis factor alpha (TNFα)
Test: affinity by IC50 ELISA (so named in paragraph 380)
Remark: another data set of the same source
B23 was tested, and the Affinity was 0.32 nM.

Target: T1, tumor necrosis factor alpha (TNFα)
Test: affinity by IC50 ELISA (so named in paragraph 380)
Remark: another data set of the same source
Binder B18 has an Affinity of 0.13 nM. Binder B19 has an Affinity of 0.32 nM. For B20, the Affinity was 0.36 nM. B21 showed an Affinity of 0.12 nM. Work on B22 yielded an Affinity of 0.56 nM. B24 was tested, and the Affinity was 0.1 nM. Binder B26 has an Affinity of 0.43 nM. With B30 the Affinity was 0.25 nM.

Target: T1, tumor necrosis factor alpha (TNFα)
Test: affinity by IC50 ELISA (so named in paragraph 380)
Remark: another data set of the same source
B25 was tested, and the Affinity was 0.18 nM. B27 was tested, and the Affinity was 0.13 nM. In the case of B28, the Affinity is reported as 0.07 nM. Work on B29 yielded an Affinity of 0.31 nM. Work on B31 yielded an Affinity of 0.14 nM. Work on B32 yielded an Affinity of 0.12 nM.

Target: T1, tumor necrosis factor alpha (TNFα)
Test: affinity by IC50 ELISA (so named in paragraph 380)
Remark: another data set of the same source
B8 showed an Affinity of 0.22 nM. B11 gave an Affinity of 0.16 nM. For B16, the Affinity was 0.18 nM.

Target: T1, tumor necrosis factor alpha (TNFα)
Test: affinity by IC50 ELISA (so named in paragraph 380)
Remark: another data set of the same source
Work on B2 yielded an Affinity of 0.05 nM. B4 was tested, and the Affinity was 0.04 nM. B7 gave an Affinity of 0.04 nM. Work on B12 yielded an Affinity of 0.04 nM. B15 gave an Affinity of 0.04 nM.
